The chains are these.
B1: CAMK2B (parent)
chain: YQQIKAGAYDFPSPEWDTVTPEAK

Drawing on the supplement of paper PMC10567573, this text covers protein stability index for 94 variants.
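Note: lentivirally expressed fusions sorted by FACS into six bins by GFP to DsRed ratio, PSI derived from sequencing read proportions per bin multiplied by bin number.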

This data set covers variants of B1. Briefly: protein stability index of a GFP-peptide fusion (GPS, HEK-293T) (PSI 1-6); higher = more stable. The settings on record: c terminus: a fixed tail appended.
Consider YQQIKAGWYDFPSPEWDTVTPEAK [A8W], for which the protein stability index was 2.26.

YQQIKAGYYDFPSPEWDTVTPEAK [A8Y]: the protein stability index was found to be 3.31. In the case of YQQIKAGGYDFPSPEWDTVTPEAK [A8G] it was 3.61; in that of YQQIKAGQYDFPSPEWDTVTPEAK [A8Q], 3.68.

Take YQQIKAGRYDFPSPEWDTVTPEAK [A8R]: the protein stability index stood at 3.14. In the case of YQQIKAGDYDFPSPEWDTVTPEAK [A8D] it was 3.91; in that of YQQIKAGAYDFPSPEWDCVTPEAK [T18C], 3.37. Take YQQIKAGAYDFPSPEWDKVTPEAK [T18K]: the protein stability index amounted to 3.87.

YQQIKAGAYDFPSPEWDAVTPEAK [T18A]: the protein stability index was determined as 3.69. With YQQIKAGAYDFPSPEWDNVTPEAK [T18N], the protein stability index is 3.69. In the case of YQQIKAGAYDFPSPEWDSVTPEAK [T18S] it was 3.88; in that of YQQIKAGAYDFPSPEWDDVTPEAK [T18D], 4.25. In the case of YQQIKAGAYDFPSPEWDPVTPEAK [T18P] it was 3.82; in that of YQQIKAGAYDFPSPEWDTVHPEAK [T20H], 3.86; in that of YQQIKAGAYDFPSPEWDTVLPEAK [T20L], 3.15. In the case of YQQIKAGAYDFPSPEWDTVDPEAK [T20D] it was 4.31; in that of YQQIKAGAYDFPSPEWDTVNPEAK [T20N], 3.91.

Take YQQIKAGAYDFPSPEWDTVAPEAK [T20A]: the protein stability index was found to be 3.48. In the case of YQQIKAGARDFPSPEWDTVTPEAK [Y9R] it was 3.64; in that of YQQIKAGAMDFPSPEWDTVTPEAK [Y9M], 4.1; in that of YQQIKAGAADFPSPEWDTVTPEAK [Y9A], 4.37. Turning to YQQIKAGAWDFPSPEWDTVTPEAK [Y9W], the protein stability index was 2.48. In the case of YQQIKAGAYDYPSPEWDTVTPEAK [F11Y], the protein stability index worked out at 3.95. In the case of YQQIKAGAYDGPSPEWDTVTPEAK [F11G] it was 4; in that of YQQIKAGAYDSPSPEWDTVTPEAK [F11S], 4.36.

As for YQQIKAGAYDVPSPEWDTVTPEAK [F11V], the protein stability index came out at 4.15.

In the case of YQQIKAGAYDTPSPEWDTVTPEAK [F11T], the protein stability index turned out to be 4.43. For YQQIKAGAYDLPSPEWDTVTPEAK [F11L], the protein stability index worked out at 3.97. With YQQIKAGAYDEPSPEWDTVTPEAK [F11E], the protein stability index was 4.72. YQQIKAGAYDFPSPEWPTVTPEAK [D17P]: the protein stability index was found to be 3.27.

For the variant YQQIKAGAYDFPSPEWGTVTPEAK [D17G], the protein stability index is 2.69. In the case of YQQIKAGAYDFPSPEWTTVTPEAK [D17T] it was 2.84. In the case of YQQIKAGAYDFPSPEWNTVTPEAK [D17N] it was 3.15. Consider YQQIKAGAYDFPSPEWLTVTPEAK [D17L], for which the protein stability index was determined as 2.51. In the case of YQQIKAGAYDFPSPEWMTVTPEAK [D17M] it was 2.6; in that of YQQIKAGAYDFPSPEWYTVTPEAK [D17Y], 2.88; in that of YQQIQAGAYDFPSPEWDTVTPEAK [K5Q], 3.77. In the case of YQQICAGAYDFPSPEWDTVTPEAK [K5C] it was 3.58; in that of YQQIVAGAYDFPSPEWDTVTPEAK [K5V], 3.77; in that of YQQIDAGAYDFPSPEWDTVTPEAK [K5D], 4.39. In the case of YQQILAGAYDFPSPEWDTVTPEAK [K5L] it was 3.6.

On to YQQIMAGAYDFPSPEWDTVTPEAK [K5M], for which the protein stability index stood at 4.04. In the case of YQQIKAGAYDFKSPEWDTVTPEAK [P12K] it was 3.3; in that of YQQIKAGAYDFHSPEWDTVTPEAK [P12H], 3.21. YQQIKAGAYDFFSPEWDTVTPEAK [P12F]: the protein stability index stood at 2.25. As to YQQIKAGAYDFDSPEWDTVTPEAK [P12D], the protein stability index was 4.01. In the case of YQQIKAGAYDFSSPEWDTVTPEAK [P12S] it was 3.29; in that of YQQIKAGAYDFNSPEWDTVTPEAK [P12N], 3.94; in that of YQQIKAGAYDFWSPEWDTVTPEAK [P12W], 3.5. For YQQIKAGAYDFCSPEWDTVTPEAK [P12C], the protein stability index amounted to 2.76. On to YQQIKAGAYDFMSPEWDTVTPEAK [P12M], for which the protein stability index came out at 3.08.

Turning to YQQIKAGAYDFPSPEWDTVTVEAK [P21V], the protein stability index is 3.42.

Turning to YQQIKAGAYDFPSPEWDTVTEEAK [P21E], the protein stability index turned out to be 4.3. Take YQQIKAGAYDFPSPEWDTVTSEAK [P21S]: the protein stability index worked out at 3.62. In the case of YQQIKAGAYDFPSPEWDTVTFEAK [P21F] it was 2.78; in that of YQQIKAGAYDFPSPEWDTVTTEAK [P21T], 3.6. In the case of YQQIKAGAYDFPSPEWDTVTIEAK [P21I] it was 3. In the case of YQQIKAGAYDFPSPEWDTVTLEAK [P21L] it was 3.28; in that of YQQIKAGAYDFPSPEWDTVTGEAK [P21G], 3.65; in that of YQQIKAGAYDFPSPEWDTVTCEAK [P21C], 3.29. On to YQQIKAGAYDFPSPEWDTVTWEAK [P21W], for which the protein stability index worked out at 2.53.

On to YQQIKAGAYRFPSPEWDTVTPEAK [D10R], for which the protein stability index was determined as 2.05.

Consider YQQIKAGAYHFPSPEWDTVTPEAK [D10H], for which the protein stability index came to 2.54. YQQIKAGAYNFPSPEWDTVTPEAK [D10N]: the protein stability index worked out at 2.52.

Regarding YQQIKAGAYLFPSPEWDTVTPEAK [D10L], the protein stability index worked out at 2.4. In the case of YQQIKAGAYTFPSPEWDTVTPEAK [D10T] it was 2.61. For YQQIKAGAYGFPSPEWDTVTPEAK [D10G], the protein stability index was determined as 2.23.

Turning to YQQIKAGAYDFPSPEWDTVTPEAL [K24L], the protein stability index came out at 3.1. For the variant YQQIKAGAYDFPSPEWDTVTPEAQ [K24Q], the protein stability index is 3.81. In the case of YQQIKAGAYDFPSPEWDTVTPEAM [K24M] it was 3.27. In the case of YQQIKAGAYDFPSPEWDTVTPEAF [K24F] it was 2.71; in that of YQQIKAGAYDFPSPEWDTVTPEAC [K24C], 3.38. For the variant YQQIKAGAYDFPSPEWDTVTPEAD [K24D], the protein stability index was found to be 4.11. Turning to YQQIKAGAYDFPSPEWDTMTPEAK [V19M], the protein stability index was 3.95. In the case of YQQIKAGAYDFPSPEWDTHTPEAK [V19H] it was 4.01; in that of YQQIKAGAYDFPSPEWDTGTPEAK [V19G], 3.92; in that of YQQIKAGAYDFPSPEWDTWTPEAK [V19W], 2.79.

For YQQIKAGAYDFPSPEWDTFTPEAK [V19F], the protein stability index came out at 1.97. YQQIKAGAYDFPSPEWDTYTPEAK [V19Y]: the protein stability index turned out to be 2.16. YQQDKAGAYDFPSPEWDTVTPEAK [I4D]: the protein stability index is 4.32.

Turning to YQQPKAGAYDFPSPEWDTVTPEAK [I4P], the protein stability index turned out to be 3.58. On to YQQCKAGAYDFPSPEWDTVTPEAK [I4C], for which the protein stability index turned out to be 3.09.

Take YQQSKAGAYDFPSPEWDTVTPEAK [I4S]: the protein stability index was 3.02. In the case of YQQLKAGAYDFPSPEWDTVTPEAK [I4L] it was 3.81; in that of YQQGKAGAYDFPSPEWDTVTPEAK [I4G], 3.34; in that of YQQQKAGAYDFPSPEWDTVTPEAK [I4Q], 3.78. In the case of YQQMKAGAYDFPSPEWDTVTPEAK [I4M] it was 3.66; in that of YQQHKAGAYDFPSPEWDTVTPEAK [I4H], 3.56; in that of YPQIKAGAYDFPSPEWDTVTPEAK [Q2P], 3.67. In the case of YKQIKAGAYDFPSPEWDTVTPEAK [Q2K] it was 3.8; in that of YVQIKAGAYDFPSPEWDTVTPEAK [Q2V], 1.8; in that of YNQIKAGAYDFPSPEWDTVTPEAK [Q2N], 4.51. On to YIQIKAGAYDFPSPEWDTVTPEAK [Q2I], for which the protein stability index is 2.28. YTQIKAGAYDFPSPEWDTVTPEAK [Q2T]: the protein stability index was determined as 3.67.
